Among the data in paper PMC6786517 are ratio of gray value of cortactin in pellets and supernatants values, retold here.

In the assay the target is F-actin. Nature of the assay: co-sedimentation; F-actin co-sedimentation of HA-cortactin WT, 8KQ and 8KR; gray values of cortactin in pellets and supernatants.
In the case of “HA-tagged acetylation-mimetic cortactin (8KQ) (from UniProt Q60598 1-546) (natural protein)”, the ratio of gray value of cortactin in pellets and supernatants amounted to 0.781. Under “HA-tagged cortactin (from UniProt Q60598 1-546) (natural protein)” stands 1.03; under “HA-tagged non-acetylation-mimetic cortactin (8KR) (from UniProt Q60598 1-546) (natural protein)”, 1.59.
